{"source": "patent US20170306346", "proteins": {"B1": {"name": "HA-PUB10 (protein)", "chain": "MAGGAITPDSLIGLIAEINEIPGNFGLFKKDCSDLARRVGLLTHLIEEIRDSSPPSESDASSSLNSHECDWWSDLVVGLQAAKRLLSSATSFQARESSDGAAKRISFQFQCVTWKLEKALGDLTYDRYDISDEVREQVELARLQLRRAMQRYGSLNSKKFSSGLSEPMEKDASSNRKVIEKLESIPETVHSLSDEKKFESPPPWKSSSVSLAFFLSKDGDDERLEKAVTENSDDSQKSDNLTIPEDFLCPISLELMKDPAIVSTGQTYERSFIQRWIDCGNLSCPKTQQKLENFTLTPNYVLRSLISQWCTKHNIEQPGGYMNGRTKNSDGSFRDLSGDMSAIRALVCKLSSQSIEDRRTAVSEIRSLSKRSTDNRILIAEAGAIPVLVKLLTSDGDTETQENAVTCILNLSIYEHNKELIMLAGAVTSIVLVLRAGSMEARENAAATLFSLSLADENKIIIGASGAIMALVDLLQYGSVRGKKDAATALFNLCIYQGNKGRAVRAGIVKPLVKMLTDSSSERMADEALTILSVLASNQVAKTAILRANAIPPLIDCLQKDQPRNRENAAAILLCLCKRDTEKLISIGRLGAVVPLMELSRDGTERAKRKANSLLELLRKSSRKLGSL"}, "B2": {"name": "MBP-PUB10-6myc (protein)", "chain": "B1 chain"}, "B3": {"name": "MBP-PUB10 (C249A)-6myc (protein)", "chain": "B1 chain with C249A"}, "B4": {"name": "HA-PUB10 (C249A) (protein)", "chain": "B1 chain with C249A"}, "B5": {"name": "MBP-PUB11-myc (protein)", "chain": "MAGGIVSPASLLDLIADIVEIPLNTGMFKKDCADLTRRVCLLTHLLEEIRDSTPIDSAASSSSENDWWSDLVVGLQAAKRLLSTARFQARDSSDGAAKRISFQFQCVTWKLEKALSNLPYDLYDISDEVGEQVELARSQLRRAMQRYGSLNSNKFSSALSEPMERDGFSNVIKIKAEEKLESVSETLHFGEEEEKQSSPPLRRSSSISLAYYLSKDADTDRLDKMVNKNTDESKKSDKLTIPVDFLCPVSLELMKDPVIVATGQTYERAYIQRWIDCGNLTCPKTQQKLENFTLTPNYVLRSLISRWCAEHNIEQPAGYINGRTKNSGDMSVIRALVQRLSSRSTEDRRNAVSEIRSLSKRSTDNRILIAEAGAIPVLVNLLTSEDVATQENAITCVLNLSIYENNKELIMFAGAVTSIVQVLRAGTMEARENAAATLFSLSLADENKIIIGGSGAIPALVDLLENGTPRGKKDAATALFNLCIYHGNKGRAVRAGIVTALVKMLSDSTRHRMVDEALTILSVLANNQDAKSAIVKANTLPALIGILQTDQTRNRENAAAILLSLCKRDTEKLITIGRLGAVVPLMDLSKNGTERGKRKAISLLELLRKACQ"}}, "key": {"His-AtUBC2, P42745": {"biological_target": "T1, His-AtUBC2, P42745", "T1 chain": "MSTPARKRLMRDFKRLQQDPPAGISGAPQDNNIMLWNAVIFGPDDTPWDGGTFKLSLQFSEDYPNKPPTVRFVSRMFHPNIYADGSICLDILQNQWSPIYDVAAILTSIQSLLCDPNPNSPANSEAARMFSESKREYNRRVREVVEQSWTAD"}, "His-AtUBC31": {"biological_target": "T2, His-AtUBC31", "T2 sequence (Q9C8X7 1-154, looked up)": "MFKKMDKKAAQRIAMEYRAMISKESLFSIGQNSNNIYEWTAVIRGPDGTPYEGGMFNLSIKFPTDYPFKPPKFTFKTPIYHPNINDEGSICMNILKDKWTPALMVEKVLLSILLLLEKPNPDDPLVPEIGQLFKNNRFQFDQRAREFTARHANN"}, "His-AtUBC36, Q9FZ48": {"biological_target": "T3, His-AtUBC36, Q9FZ48", "T3 chain": "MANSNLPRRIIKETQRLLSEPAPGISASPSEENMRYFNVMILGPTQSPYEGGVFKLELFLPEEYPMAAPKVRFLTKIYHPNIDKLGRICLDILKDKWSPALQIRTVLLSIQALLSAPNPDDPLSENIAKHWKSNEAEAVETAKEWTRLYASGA"}}, "note": "Substitutions are numbered along the chain they refer to. Numbers in names are those of the source."}
{"protein": "B1", "values": [{"measurement": "myc-MYC2 protein level in double transgenic Arabidopsis seedlings (Western blot)", "setting": "myc-MYC2, Q39204", "result": "induced expression of HA-PUB10 clearly resulted in a decrease in myc-MYC2 level"}]}
{"protein": "B2", "values": [{"measurement": "in vitro auto-ubiquitination of PUB10 with the UBC as E2", "setting": "His-AtUBC8, P35131", "result": "Each of these 4 UBCs was capable of supporting auto-ubiquitination of PUB10 and PUB11 in vitro although with varying degrees of activity ... The highest activity was obtained when UBC8 served as the ubiquitin conjugating enzyme"}, {"measurement": "in vitro auto-ubiquitination of PUB10 with the UBC as E2", "setting": "His-AtUBC2, P42745", "result": "Each of these 4 UBCs was capable of supporting auto-ubiquitination of PUB10 and PUB11 in vitro although with varying degrees of activity"}, {"measurement": "in vitro ubiquitination of MYC2 (E1, AtUBC8 as E2, His-ubiquitin; Western blot)", "setting": "GST-MYC2-HA, Q39204", "result": "MYC2 was indeed poly-ubiquitinated by PUB10 in vitro"}, {"measurement": "in vitro auto-ubiquitination of PUB10 with the UBC as E2", "setting": "His-AtUBC31", "result": "Each of these 4 UBCs was capable of supporting auto-ubiquitination of PUB10 and PUB11 in vitro although with varying degrees of activity"}, {"measurement": "in vitro auto-ubiquitination of PUB10 with the UBC as E2", "setting": "His-AtUBC36, Q9FZ48", "result": "Each of these 4 UBCs was capable of supporting auto-ubiquitination of PUB10 and PUB11 in vitro although with varying degrees of activity"}]}
{"protein": "B3", "values": [{"measurement": "in vitro ubiquitination of MYC2 (E1, AtUBC8 as E2, His-ubiquitin; Western blot)", "setting": "GST-MYC2-HA, Q39204", "result": "The ubiquitination activity was greatly reduced when cysteine 249 was mutated to alanine 249"}]}
{"protein": "B4", "values": [{"measurement": "myc-MYC2 protein level in double transgenic Arabidopsis seedlings (Western blot)", "setting": "myc-MYC2, Q39204", "result": "induced expression of PUB10 (C249A) mutant protein resulted in an increase of MYC2 level"}]}
{"protein": "B5", "values": [{"measurement": "in vitro auto-ubiquitination of PUB11 with the UBC as E2", "setting": "His-AtUBC8, P35131", "result": "Each of these 4 UBCs was capable of supporting auto-ubiquitination of PUB10 and PUB11 in vitro although with varying degrees of activity ... The highest activity was obtained when UBC8 served as the ubiquitin conjugating enzyme"}, {"measurement": "in vitro auto-ubiquitination of PUB11 with the UBC as E2", "setting": "His-AtUBC2, P42745", "result": "Each of these 4 UBCs was capable of supporting auto-ubiquitination of PUB10 and PUB11 in vitro although with varying degrees of activity"}, {"measurement": "in vitro ubiquitination of MYC2 (E1, E2, Ub; Western blot)", "setting": "GST-MYC2-HA, Q39204", "result": "MYC2 is a substrate of PUB11 E3 ligase"}, {"measurement": "in vitro auto-ubiquitination of PUB11 with the UBC as E2", "setting": "His-AtUBC31", "result": "Each of these 4 UBCs was capable of supporting auto-ubiquitination of PUB10 and PUB11 in vitro although with varying degrees of activity"}, {"measurement": "in vitro auto-ubiquitination of PUB11 with the UBC as E2", "setting": "His-AtUBC36, Q9FZ48", "result": "Each of these 4 UBCs was capable of supporting auto-ubiquitination of PUB10 and PUB11 in vitro although with varying degrees of activity"}]}
